Data taken from patent US20240239891A1 (Stanford University, published 2024).
Positions count from the first letter of the chain named. Each block holds one binder with its values, some of them ahead of it.

Key:
[1] = molecular target: T1, extracellular domain (ECD) of human or mouse RNF43 (human or mouse); test: SPR (Biacore), nanobody on ECD
T1 construct: extracellular domain; also called RNF43 ECD

[2] = molecular target: T2, extracellular domain (ECD) of human GOLIATH (RNF130) (human, UniProt Q86XS8 28-194); test: SPR (Biacore), titration at equilibrium, nanobody on ECD
T2 construct: extracellular domain; also called GOLIATH ECD
T2 sequence (looked up): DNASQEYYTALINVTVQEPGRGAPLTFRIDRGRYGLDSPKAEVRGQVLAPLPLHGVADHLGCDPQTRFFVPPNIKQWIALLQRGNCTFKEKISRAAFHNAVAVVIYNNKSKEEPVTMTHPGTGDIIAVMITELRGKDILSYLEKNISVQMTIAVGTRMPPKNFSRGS

[3] = molecular target: T3, extracellular domain (ECD) of human GRAIL (RNF128) (human, UniProt Q8TEB7 39-207, limits assumed); test: SPR (Biacore), titrations at equilibrium, Biacore Analysis Software; row GOLIATH-A1, column GRAIL (hRNF128)
T3 construct: extracellular domain; also called GRAIL ECD
T3 sequence (looked up): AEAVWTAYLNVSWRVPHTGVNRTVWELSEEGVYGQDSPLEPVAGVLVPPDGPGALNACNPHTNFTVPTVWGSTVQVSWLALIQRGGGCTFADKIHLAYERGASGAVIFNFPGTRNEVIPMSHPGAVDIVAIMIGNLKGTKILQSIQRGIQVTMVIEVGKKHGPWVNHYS

[4] = molecular target: T4, extracellular domain (ECD) of human GODZILLA (RNF167) (human, UniProt Q9H6Y7 25-173, limits assumed); test: SPR (Biacore), titrations at equilibrium, Biacore Analysis Software; row GOLIATH-A1, column GODZILLA (hRNF167)
T4 construct: extracellular domain; also called GODZILLA ECD

[5] = molecular target: T3, extracellular domain (ECD) of human …; test: SPR (Biacore), titration at equilibrium, nanobody on ECD
[6] = molecular target: T2, extracellular domain (ECD) of human …; test: SPR (Biacore), titrations at equilibrium, Biacore Analysis Software; row GRAIL-E2, column GOLIATH (hRNF130)
[7] = molecular target: T4, extracellular domain (ECD) of human …; test: SPR (Biacore), titrations at equilibrium, Biacore Analysis Software; row GRAIL-E2, column GODZILLA (hRNF167)
[8] = molecular target: T2, extracellular domain (ECD) of human …; test: SPR (Biacore), ligand hRNF130 ECD (GOLIATH), analyte GRAIL-D1
[9] = molecular target: T4, extracellular domain (ECD) of human …; test: SPR (Biacore), titrations at equilibrium, Biacore Analysis Software; row GRAIL-D1, column GODZILLA (hRNF167)
[10] = molecular target: T4, extracellular domain (ECD) of human …; test: SPR (Biacore), ligand hRNF167 ECD (GODZILLA), analyte GOLIATH-F8 [CONT. 3]
[11] = molecular target: T3, extracellular domain (ECD) of human …; test: SPR (Biacore), titrations at equilibrium, Biacore Analysis Software; column ECD GRAIL (hRNF128)
[12] = molecular target: T4, extracellular domain (ECD) of human …; test: SPR (Biacore), titrations at equilibrium, Biacore Analysis Software; row GOLIATH-D1, column GODZILLA (hRNF167)
[13] = molecular target: T3, extracellular domain (ECD) of human …; test: SPR (Biacore), ligand hRNF128 ECD (GRAIL), analyte GOLIATH-F2 [CONT. 2]
[14] = molecular target: T4, extracellular domain (ECD) of human …; test: SPR (Biacore), ligand hRNF167 ECD (GODZILLA), analyte GOLIATH-F2 [CONT. 2]
[15] = molecular target: T2, extracellular domain (ECD) of human …; test: SPR (Biacore), titrations at equilibrium, Biacore Analysis Software; row GRAIL-E1, column GOLIATH (hRNF130)
[16] = molecular target: T4, extracellular domain (ECD) of human …; test: SPR (Biacore), titrations at equilibrium, Biacore Analysis Software; row GRAIL-E1, column GODZILLA (hRNF167)
[17] = molecular target: T5, extracellular domain (ECD) of human or mouse ZNRF3 (human or mouse); test: SPR (Biacore), nanobody on ECD
T5 construct: extracellular domain; also called ZNRF3 ECD

hRNF43 ECD = molecular target: T6, hRNF43 ECD; test: SPR (Biacore), ligand hRNF43 ECD, nanobody as analyte
T6 construct: The human half of m18, which leaves the species open; also called extracellular domain of human RNF43
T6 chain: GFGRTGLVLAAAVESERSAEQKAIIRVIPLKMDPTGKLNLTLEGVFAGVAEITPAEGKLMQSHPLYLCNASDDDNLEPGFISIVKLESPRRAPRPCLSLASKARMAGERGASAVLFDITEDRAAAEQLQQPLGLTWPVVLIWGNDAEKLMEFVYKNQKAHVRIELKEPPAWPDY

mRNF43 ECD [18] = molecular target: T7, mRNF43 ECD; test: SPR (Biacore), ligand mRNF43 ECD, nanobody as analyte
T7 construct: The mouse half of m18, which leaves the species open; also called extracellular domain of mouse RNF43
T7 chain: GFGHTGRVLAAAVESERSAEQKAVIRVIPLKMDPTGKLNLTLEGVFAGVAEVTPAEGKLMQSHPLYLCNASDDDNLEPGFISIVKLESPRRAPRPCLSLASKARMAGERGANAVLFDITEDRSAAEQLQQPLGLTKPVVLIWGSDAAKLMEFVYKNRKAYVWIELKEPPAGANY

hZNRF3 ECD = molecular target: T8, hZNRF3 ECD; test: SPR (Biacore), ligand hZNRF3 ECD, nanobody as analyte
T8 construct: The human half of m19, which leaves the species open; also called extracellular domain of human ZNRF3
T8 chain: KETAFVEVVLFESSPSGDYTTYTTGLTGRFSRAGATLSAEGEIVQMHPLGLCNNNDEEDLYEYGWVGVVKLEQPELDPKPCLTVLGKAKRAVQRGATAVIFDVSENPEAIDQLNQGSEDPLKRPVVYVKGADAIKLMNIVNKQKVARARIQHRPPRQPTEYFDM

mZNRF3 ECD = molecular target: T9, mZNRF3 ECD; test: SPR (Biacore), ligand mZNRF3 ECD, nanobody as analyte
T9 construct: The mouse half of m19, which leaves the species open; also called extracellular domain of mouse ZNRF3
T9 chain: T8 chain with Y22H, T36M, R153L

mRNF43 ECD [19] = molecular target: T7, mRNF43 ECD; test: SPR (Biacore), ligand mRNF43 ECD, analyte RNF43 -A4

B4: GRAIL (RNF128) VHH of SEQ ID NO: 1 (VHH)
VHH: QVQLQESGGGLVQAGGSLRLSCAASGYIFYGVHMGWYRQAPGKEREFVAAIDLGTTTYYADSVKGRFTISRDNAKNTVYLQMNSLKPEDTAVYYCAVYFDGLTNLPYWGQGTQVTVSS
notes: Purified nanobody; also called GRAIL nanobody
Kd [5]: 8.99 nM | binding result [8]: no binding (tested: 500 (unit not printed)) | binding result [9]: no binding

B5: GOLIATH (RNF130) VHH of SEQ ID NO: 8 (VHH)
VHH: QVQLQESGGGLVQAGGSLRLSCAASGTISFIGYMGWYRQAPGKERELVASIASGTSTYYADSVKGRFTISRDNAKNTVYLQMNSLKPEDTAVYYCAATQYIQDAHRYWGQGTQVTVSS
notes: also called GOLIATH nanobody
Kd [2]: 130 nM | binding result [10]: no binding (tested: 2000 (unit not printed)) | Kd [11]: 70.2 nM

B7: GOLIATH (RNF130) VHH of SEQ ID NO: 7 (VHH)
VHH: B5 VHH with F30V, Q99H
notes: also called GOLIATH nanobody
binding result [13]: no binding (tested: 4000 (unit not printed)) | binding result [14]: no binding (tested: 4000 (unit not printed))

B8: GRAIL (RNF128) VHH of SEQ ID NO: 2 (VHH)
VHH: QVQLQESGGGLVQAGGSLRLSCAASGNISVQLDMGWYRQAPGKEREFVAAINQGTTTYYADSVKGRFTISRDNAKNTVYLQMNSLKPEDTAVYYCAVYLYDIWNHPYWGQGTQVTVSS
notes: also called E1; GRAIL-E1
Kd [5]: 7.92 nM | binding result [15]: no binding | binding result [16]: no binding

B9: ZNRF3 VHH of SEQ ID NO: 13 (VHH)
VHH: QVQLQESGGGLVQAGGSLRLSCAASGTIFYTLFMGWYRQAPGKEREFVAGIGRGGITYYADSVKGRFTISRDNAKNTVYLQMNSLKPEDTAVYYCAVWYDFLHSDSQAYSYWGQGTQVTVSS
notes: also called ZNRF3 nanobody
Kd [17]: 18.1 nM

B11: GRAIL (RNF128) VHH of SEQ ID NO: 4 (VHH)
VHH: QVQLQESGGGLVQAGGSLRLSCAASGTISYYYAMGWYRQAPGKEREFVAAIDLGTSTYYADSVKGRFTISRDNAKNTVYLQMNSLKPEDTAVYYCAAWSDYVTELPYWGQGTQVTVSS
notes: also called GRAIL nanobody
Kd [5]: 148 nM

B12: ZNRF3 VHH of SEQ ID NO: 14 (VHH)
VHH: QVQLQESGGGLVQAGGSLRLSCAASGTISYAHIMGWYRQAPGKERELVAGISQGSITNYADSVKGRFTISRDNAKNTVYLQMNSLKPEDTAVYYCAVISYDYIKSVPFRYWGQGTQVTVSS
notes: also called ZNRF3 nanobody
Kd [17]: 0.7 nM | binding result (hZNRF3 ECD): binds | binding result (mZNRF3 ECD): binds

The next lines start with results.

Kd [1]: 41.5 nM
B1: RNF43 VHH of SEQ ID NO: 12 (VHH)
VHH: QVQLQESGGGLVQAGGSLRLSCAASGSIFWKPVMGWYRQAPGKEREFVAAITSGTNTYYADSVKGRFTISRDNAKNTVYLQMNSLKPEDTAVYYCAVDDYDVVEYPYWGQGTQVTVSS
notes: also called RNF43 nanobody

Kd [2]: 8.18 nM | binding result [3]: no binding | binding result [4]: no binding
B2: GOLIATH (RNF130) VHH of SEQ ID NO: 5 (VHH)
VHH: QVQLQESGGGLVQAGGSLRLSCAASGYISGYYVMGWYRQAPGKEREFVASISYGASTYYADSVKGRFTISRDNAKNTVYLQMNSLKPEDTAVYYCAVDFDSNYAHTYWGQGTQVTVSS
notes: also called A1; GOLIATH-A1

Kd [5]: 13.5 nM | binding result [6]: no binding | binding result [7]: no binding
B3: GRAIL (RNF128) VHH of SEQ ID NO: 3 (VHH)
VHH: QVQLQESGGGLVQAGGSLRLSCAASGSISGGKGMGWYRQAPGKEREFVAAIGSGAITYYADSVKGRFTISRDNAKNTVYLQMNSLKPEDTAVYYCAVYTTALDEYPYWGQGTQVTVSS
notes: also called E2; GRAIL-E2

Kd [2]: 6.38 nM | binding result [12]: no binding
B6: GOLIATH (RNF130) VHH of SEQ ID NO: 6 (VHH)
VHH: B5 VHH with A104V
notes: also called D1; GOLIATH-D1

Kd [1]: 163 nM | binding result (hRNF43 ECD): binds | binding result (mRNF43 ECD [18]): binds
B10: RNF43 VHH of SEQ ID NO: 11 (VHH)
VHH: QVQLQESGGGLVQAGGSLRLSCAASGTIFGLSDMGWYRQAPGKEREFVAAIAGGTITYYADSVKGRFTISRDNAKNTVYLQMNSLKPEDTAVYYCAAYKYDERYHSYWGQGTQVTVSS
notes: also called RNF43 nanobody

Kd [1]: 315 nM
B13: RNF43 VHH of SEQ ID NO: 10 (VHH)
VHH: QVQLQESGGGLVQAGGSLRLSCAASGTIFDDLLMGWYRQAPGKERELVAAIGAGATTNYADSVKGRFTISRDNAKNTVYLQMNSLKPEDTAVYYCAAWWLYYKGDWALYLYWGQGTQVTVSS
notes: also called RNF43 nanobody
binding result (mRNF43 ECD [19]): no binding (tested: highest concentration not legible)
